For data set [1], the system named is HeLa Kyoto. The data set is described as follows: melting temperature (median over replicates), in situ; higher = more thermally stable.
Data set [2] relates to HeLa Kyoto. The data set can be described thus: solubility in G1/S (NP-40 vs SDS abundance) (log2 ratio); higher = more soluble. To be noted: cell cycle stage: G1/S.
Data set [3] concerns HeLa Kyoto. The data set is described as follows: thermal stability score vs G1/S (z-score of summed log2 fold changes over temperatures); higher = more thermally stable than in G1/S.
Data set [4] concerns HeLa Kyoto. The data set is described as follows: solubility change mitosis vs G1/S (difference of NP-40 vs SDS log2 ratios) (log2 ratio difference); higher = more soluble in mitosis.
Where [5] appears, read: cell cycle stage: early G1 (4.5 h after nocodazole release).
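For melting temperature (median over replicates), in situ in this document: HeLa Kyoto cells synchronized by double thymidine or nocodazole block, proteins quantified by TMT10plex mass spectrometry, three independent biological replicates.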
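For solubility change mitosis vs G1/S (difference of NP-40 vs SDS log2 ratios) in this document: synchronized HeLa Kyoto cells (double thymidine block for G1/S, nocodazole release for mitosis), protein amounts in NP-40 versus SDS lysates quantified by mass spectrometry, three biological replicates.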
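For solubility in G1/S (NP-40 vs SDS abundance) in this document: HeLa Kyoto cells arrested at G1/S by double thymidine block, proteins quantified by TMT10plex mass spectrometry in mild NP-40 versus SDS extracts, three biological replicates.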
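For thermal stability score vs G1/S (z-score of summed log2 fold changes over temperatures) in this document: synchronized HeLa Kyoto cells, proteins quantified by TMT10plex mass spectrometry, three biological replicates, mitosis taken 0.5 h after nocodazole release, G1/S directly after double thymidine block.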

As to “MAATELRGVVGPGPAAIAALGGGGAGPPVVGGGGGRGDAGPGSGAASGTVVAAAAGGPGPGAGGVAAAGPAPAPPTGGSGGSGAGGSGSAREGWLFKWTNYIKGYQRRWFVLSNGLLSYYRSKAEMRHTCRGTINLATANITVEDSCNFIISNGGAQTYHLKASSEVERQRWVTALELAKAKAVKMLAESDESGDEESVSQTDKTELQNTLRTLSSKVEDLSTCNDLIAKHGTALQRSLSELESLKLPAESNEKIKQVNERATLFRITSNAMINACRDFLMLAQTHSKKWQKSLQYERDQRIRLEETLEQLAKQHNHLERAFRGATVLPANTPGNVGSGKDQCCSGKGDMSDEDDENEFFDAPEIITMPENLGHKRTGSNISGASSDISLDEQYKHQLEETKKEKRTRIPYKPNYSLNLWSIMKNCIGKELSKIPMPVNFNEPLSMLQRLTEDLEYHELLDRAAKCENSLEQLCYVAAFTVSSYSTTVFRTSKPFNPLLGETFELDRLEENGYRSLCEQVSHHPPAAAHHAESKNGWTLRQEIKITSKFRGKYLSIMPLGTIHCIFHATGHHYTWKKVTTTVHNIIVGKLWIDQSGEIDIVNHKTGDKCNLKFVPYSYFSRDVARKVTGEVTDPSGKVHFALLGTWDEKMECFKVQPVIGENGGDARQRGHEAEESRVMLWKRNPLPKNAENMYYFSELALTLNAWESGTAPTDSRLRPDQRLMENGRWDEANAEKQRLEEKQRLSRKKREAEAMKATEDGTPYDPYKALWFERKKDPVTKELTHIYRGEYWECKEKQDWSSCPDIF [OSBP]”, the melting temperature with HeLa Kyoto [1] (cell cycle stage: G1/S) turned out to be 52.1 °C; in the data set on HeLa Kyoto [1] (cell cycle stage: mitosis), 51.9 °C. For the same sequence, in the data set with HeLa Kyoto [2], the “solubility in G1/S (log2)” value was -0.0183. For the same sequence, the figures for the thermal stability score in the data set on HeLa Kyoto [3] (setting [5]) and in the data set with HeLa Kyoto [3] (cell cycle stage: mitosis) were -1.23 and -0.683, respectively. Also, in the data set on HeLa Kyoto [4], the “solubility change mitosis (log2)” value was -0.212.
In the case of “MAATLGPLGSWQQWRRCLSARDGSRMLLLLLLLGSGQGPQQVGAGQTFEYLKREHSLSKPYQGVGTGSSSLWNLMGNAMVMTQYIRLTPDMQSKQGALWNRVPCFLRDWELQVHFKIHGQGKKNLHGDGLAIWYTKDRMQPGPVFGNMDKFVGLGVFVDTYPNEEKQQERVFPYISAMVNNGSLSYDHERDGRPTELGGCTAIVRNLHYDTFLVIRYVKRHLTIMMDIDGKHEWRDCIEVPGVRLPRGYYFGTSSITGDLSDNHDVISLKLFELTVERTPEEEKLHRDVFLPSVDNMKLPEMTAPLPPLSGLALFLIVFFSLVFSVFAIVIGIILYNKWQEQSRKRFY [LMAN2L]”, the values for the melting temperature in the data set with HeLa Kyoto [1] (cell cycle stage: G1/S) and in the data set with HeLa Kyoto [1] (cell cycle stage: mitosis) were 53.7 °C and 54.1 °C, respectively. In addition, the “solubility in G1/S (log2)” value with HeLa Kyoto [2] was -0.0714. Besides, the results for the thermal stability score in the data set on HeLa Kyoto [3] (setting [5]) and in the data set with HeLa Kyoto [3] (cell cycle stage: mitosis) were -0.409 and -1.27, respectively. Also, the “solubility change mitosis (log2)” value in the data set on HeLa Kyoto [4] was -0.146.
Take “MAAVAAVAARRRRSWASLVLAFLGVCLGITLAVDRSNFKTCEESSFCKRQRSIRPGLSPYRALLDSLQLGPDSLTVHLIHEVTKVLLVLELQGLQKNMTRFRIDELEPRRPRYRVPDVLVADPPIARLSVSGRDENSVELTMAEGPYKIILTARPFRLDLLEDRSLLLSVNARGLLEFEHQRAPRVSQGSKDPAEGDGAQPEETPRDGDKPEETQGKAEKDEPGAWEETFKTHSDSKPYGPMSVGLDFSLPGMEHVYGIPEHADNLRLKVTEGGEPYRLYNLDVFQYELYNPMALYGSVPVLLAHNPHRDLGIFWLNAAETWVDISSNTAGKTLFGKMMDYLQGSGETPQTDVRWMSETGIIDVFLLLGPSISDVFRQYASLTGTQALPPLFSLGYHQSRWNYRDEADVLEVDQGFDDHNLPCDVIWLDIEHADGKRYFTWDPSRFPQPRTMLERLASKRRKLVAIVDPHIKVDSGYRVHEELRNLGLYVKTRDGSDYEGWCWPGSAGYPDFTNPTMRAWWANMFSYDNYEGSAPNLFVWNDMNEPSVFNGPEVTMLKDAQHYGGWEHRDVHNIYGLYVHMATADGLRQRSGGMERPFVLARAFFAGSQRFGAVWTGDNTAEWDHLKISIPMCLSLGLVGLSFCGADVGGFFKNPEPELLVRWYQMGAYQPFFRAHAHLDTGRREPWLLPSQHNDIIRDALGQRYSLLPFWYTLLYQAHREGIPVMRPLWVQYPQDVTTFNIDDQYLLGDALLVHPVSDSGAHGVQVYLPGQGEVWYDIQSYQKHHGPQTLYLPVTLSSIPVFQRGGTIVPRWMRVRRSSECMKDDPITLFVALSPQGTAQGELFLDDGHTFNYQTRQEFLLRRFSFSGNTLVSSSADPEGHFETPIWIERVVIIGAGKPAAVVLQTKGSPESRLSFQHDPETSVLVLRKPGINVASDWSIHLR [GANAB]”: the melting temperature in the data set on HeLa Kyoto [1] (cell cycle stage: G1/S) was determined as 53.6 °C; with HeLa Kyoto [1] (cell cycle stage: mitosis), 54.2 °C. Moreover, the “solubility in G1/S (log2)” value in the data set on HeLa Kyoto [2] is -0.0187. For the same sequence, the thermal stability score in the data set with HeLa Kyoto [3] (setting [5]) was determined as 3.69; in the data set with HeLa Kyoto [3] (cell cycle stage: mitosis), 5.36. Also, the “solubility change mitosis (log2)” value in the data set on HeLa Kyoto [4] is -0.155.
Regarding “MAAVAGSGAAAAPSSLLLVVGSEFGSPGLLTYVLEELERGIRSWDVDPGVCNLDEQLKVFVSRHSATFSSIVKGQRSLHHRGDNLETLVLLNPSDKSLYDELRNLLLDPASHKLLVLAGPCLEETGELLLQTGGFSPHHFLQVLKDREIRDILATTPPPVQPPILTITCPTFGDWAQLAPAVPGLQGALRLQLRLNPPAQLPNSEGLCEFLEYVAESLEPPSPFELLEPPTSGGFLRLGRPCCYIFPGGLGDAAFFAVNGFTVLVNGGSNPKSSFWKLVRHLDRVDAVLVTHPGADSLPGLNSLLRRKLAERSEVAAGGGSWDDRLRRLISPNLGVVFFNACEAASRLARGEDEAELALSLLAQLGITPLPLSRGPVPAKPTVLFEKMGVGRLDMYVLHPPSAGAERTLASVCALLVWHPAGPGEKVVRVLFPGCTPPACLLDGLVRLQHLRFLREPVVTPQDLEGPGRAESKESVGSRDSSKREGLLATHPRPGQERPGVARKEPARAEAPRKTEKEAKTPRELKKDPKPSVSRTQPREVRRAASSVPNLKKTNAQAAPKPRKAPSTSHSGFPPVANGPRSPPSLRCGEASPPSAACGSPASQLVATPSLELGPIPAGEEKALELPLAASSIPRPRTPSPESHRSPAEGSERLSLSPLRGGEAGPDASPTVTTPTVTTPSLPAEVGSPHSTEVDESLSVSFEQVLPPSAPTSEAGLSLPLRGPRARRSASPHDVDLCLVSPCEFEHRKAVPMAPAPASPGSSNDSSARSQERAGGLGAEETPPTSVSESLPTLSDSDPVPLAPGAADSDEDTEGFGVPRHDPLPDPLKVPPPLPDPSSICMVDPEMLPPKTARQTENVSRTRKPLARPNSRAAAPKATPVAAAKTKGLAGGDRASRPLSARSEPSEKGGRAPLSRKSSTPKTATRGPSGSASSRPGVSATPPKSPVYLDLAYLPSGSSAHLVDEEFFQRVRALCYVISGQDQRKEEGMRAVLDALLASKQHWDRDLQVTLIPTFDSVAMHTWYAETHARHQALGITVLGSNSMVSMQDDAFPACKVEF [MAP1S]”, the figures for the melting temperature in the data set with HeLa Kyoto [1] (cell cycle stage: G1/S) and in the data set with HeLa Kyoto [1] (cell cycle stage: mitosis) were 50.4 °C and 49.8 °C, respectively. For the same sequence, in the data set with HeLa Kyoto [2], the “solubility in G1/S (log2)” value was 0.287. For the same sequence, the thermal stability score in the data set on HeLa Kyoto [3] (setting [5]) is -0.227; in the data set on HeLa Kyoto [3] (cell cycle stage: mitosis), -0.265. In addition, the “solubility change mitosis (log2)” value in the data set with HeLa Kyoto [4] is -0.216.
As to “MAAVDIRDNLLGISWVDSSWIPILNSGSVLDYFSERSNPFYDRTCNNEVVKMQRLTLEHLNQMVGIEYILLHAQEPILFIIRKQQRQSPAQVIPLADYYIIAGVIYQAPDLGSVINSRVLTAVHGIQSAFDEAMSYCRYHPSKGYWWHFKDHEEQDKVRPKAKRKEEPSSIFQRQRVDALLLDLRQKFPPKFVQLKPGEKPVPVDQTKKEAEPIPETVKPEEKETTKNVQQTVSAKGPPEKRMRLQ [MED6]”, the results for the melting temperature with HeLa Kyoto [1] (cell cycle stage: G1/S) and with HeLa Kyoto [1] (cell cycle stage: mitosis) were 47.9 °C and 50 °C, respectively. The “solubility in G1/S (log2)” value in the data set with HeLa Kyoto [2] worked out at 0.404. For the same sequence, the thermal stability score with HeLa Kyoto [3] (setting [5]) is -0.569; with HeLa Kyoto [3] (cell cycle stage: mitosis) it was -0.431. Besides, the “solubility change mitosis (log2)” value in the data set on HeLa Kyoto [4] stood at 0.222.
